Source: paper PMC7182444 (Science (New York, N.Y.), 2020)

Legend:
[1] = target: the molecule itself; experiment: SDS-PAGE and SDD-AGE with western blotting
[2] = target: Orb2 filaments purified from adult heads (Drosophila melanogaster (endogenous in …, UniProt Q9VSR3 1-704)); experiment: seeded aggregation

- binding result [2]: binds
B1: Orb2 (Drosophila CPEB) purified from adult heads (natural protein)
chain: MDSLKLPKANSATSSASGSNSNLSGSTSASASAATSPTSSGTAVGGILSGAPKSPPGLGSSTPISVRFNANEESLDDILQSFHHSKHSPSGGASGGGDASPTSNLLGMKNNGLGLVVGNCDSLSSSPSQPQMHAGSASLFGNDEVSLRNNFMQAGGFFNRKSCGGLPNLNLNKPPQLHQQQHQQQHQQHQQHQQQQQLHQHQQQLSPNLSALHHHHQQQQQLRESGGSHSPSSPGGGGGGSPYNGSQAGCSSGGISPIPPQMGVSPKYRRSISFPIKGNSPTAIYGNMHMDGMGSGHMNIPTLSIGNGGGGGSTGMVSAGATGGGDAPYLGNSYGNMMTSNGQMHHGGGLDNSLCDYMRNMSLGGNGGGDGSNSMSLMQDRMRVMGGPKHLSEADAMAIAASGNDPSVYLNALKMGSPSRLSPHSPHSPIQGGNGGNVGDGTARFSRKVFVGGLPPDIDEDEITTSFRRFGPLVVDWPHKAESKSYFPPKGYAFLLFQDESSVQQLIDSCITDEDKLYLCVSSPTIKDKAVQIRPWRLADADYVLDATMSLDPRKTVFVGGVPRPLKAFELAMIMDRLYGGVCYAGIDTDPELKYPKGAGRVAFSNQQSYIAAISARFVQLQHGDIDKRVEVKPYVLDDQMCDECEGQRCGGKFAPFFCANVTCLQYYCEHCWAVIHSRPGREYHKPLVKEGADRPRAVPFRWC
- binding result [1]: binds
